Laboratory results taken from US7011940.

Target: ER peptide mimic
Assay: immunostaining of ER peptide mimic spots on a membrane, colour scored 1-4+

## 1D5 anti-human estrogen receptor mouse monoclonal antibody
  Staining intensity (1-4+): 4 1-4+ scale
